Substitutions are numbered along the chain they refer to.
B1: A5 (antibody, IgG1, V domains shown)
VH: EVQLVQSGAEVKKPGASVKVSCKASGGTFSSYAISWVRQAPGQGLEWMGGIIPILGTADYAQKFQGRVTITADESTSTAYMELSSLRSEDTAVYYCARDEIPLEYCTSTSCYHAFDIWGQGTMVTVSS
VL: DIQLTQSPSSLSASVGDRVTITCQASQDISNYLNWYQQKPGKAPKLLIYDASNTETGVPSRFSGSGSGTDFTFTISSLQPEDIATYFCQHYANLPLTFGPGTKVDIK
B2: A6 (antibody, IgG1, V domains shown)
VH: QVQLVQSGAEVKKPGSSVKVSCKASGGTFRNHAFSWVRQAPGQGLEWMGWISAYNGYTHYAEKLQGRVTMTTDTSTSTAYMELRSLRSDDTAVYYCARVSASYNSDWSLHYYYGMDVWGQGTTVTVSS
VL: QSVLTQPPSVSAAPGQEVTISCSGSNSNIGNNYVSWYQQLPGTAPKLLIYDNNERPSGIPDRFSGSKSGTSATLGITGLQTGDEADYYCGTWDSSLSAGVFGGGTKLTVL
notes: also called EGFR-A6; Clone A6
B3: B5 (antibody, IgG1, V domains shown)
VH: QMQLVQSWAEVKKPGASVKVSCKASAYTFTNYYIHWVRQAPGQGLEWMGIINPSSGATTYAQRLQGRVIMTRDTSTSTVNMELSSLRSEDTAVYYCARSTLWFSEFDYWGQGTLVTVSS
VL: QSVLTQPASVSGSPGQSITISCTGTTSDVGGFNYVSWYQQHPGKVPKLIIFDVSNRPSSVSDRFSGSKSVNTASLTISGLQAEDEADYYCSSYTDSGSYIFGTGTKVTVL
B4: D2 (antibody, IgG1, V domains shown)
VH: EVQLVESGGGVVQPGRSLRLSCAASGFIFNHYAMHWVRQAPGKGLEWVAHISSDGSYKFYADSVKGRFTVSRDNSDNTVYLQMNSLGPEDTAVYHCARFTEVLYYGADYWGQGTLVTVSS
VL: QSVLTQPPSVSEAPRQRVSISCSGSSSNIGNNAVNWYQQLPGKAPKLLIYFDDLLPSGVSDRFSGSKSGTSASLAISGLQSEDEADYYCAAWDDSLKGYVFGTGTKVTVL
notes: also called EGFR-D2; Clone D2
B5: B4 (antibody, IgG1, V domains shown)
VH: B1 VH with E1Q, A16S, S17A
VL: NIQMTQSPPSLSAFVGDRVTITCQASQAINNYLNWYQQKPGKAPKLLIYDASNLETGVPSRFSGSGSGTDFTFTISSLQPEDNATYYCQQYDKLPLTFGGGTKVEIK
notes: also called EGFR-B4
B6: D6 (antibody, IgG1, V domains shown)
VH: B1 VH with A16S, S17A, Q120R
VL: AIQLTQSPSTLSASVGDRVTITCRASQSISSWLAWYQQKPGKAPKLLIYAASSLQSGVPSRFSGSGSGTDFTLTISSLQPEDFATYYCQQSYSTPLTFGGGTKVEIK
notes: also called EGFR-D6
B7: B1 (antibody, IgG1, V domains shown)
VH: B4 VH with E1Q, E6Q
VL: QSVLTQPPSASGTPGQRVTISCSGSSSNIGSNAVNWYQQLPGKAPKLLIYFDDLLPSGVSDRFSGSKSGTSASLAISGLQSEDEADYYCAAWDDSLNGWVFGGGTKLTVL
B8: D2GA4 (antibody, V domains shown)
VH: B4 VH with N30H, Y57S, D76K, V79L, G87R, P88A, H95Y, Y109L
VL: B4 VL with N31D, F51Y, L55H
B9: D2 GB8 (antibody, V domains shown)
VH: B4 VH with N30H, S53P, D76K, V79L, G87R, P88A, H95Y, Y109I
VL: B4 VL with F51Y, D61N
B10: D2GA2 (antibody, V domains shown)
VH: B4 VH with N30H, S53P, Y57S, D76K, V79L, G87R, P88A, H95Y, Y109I
VL: B4 VL
B11: D2GC1 (antibody, V domains shown)
VH: B4 VH with N30H, S53P, Y57S, D76K, V79L, G87R, P88A, H95Y, Y109L
VL: B4 VL with F51Y
B12: D2GC4 (antibody, V domains shown)
VH: B4 VH with N30H, A33S, Y57S, D76K, V79L, G87R, P88A, H95Y, Y109L
VL: QSVLTQPPSVSEAPRQRVSISCSGSSSNIGNNAVNWYQQLPGKAPKLLIYYDDLLPSGVSDRFSGSKSGTSASLAISGLQSEDEADYYCAAWDDSLKGYVFGTGTKVTV
B13: D2GG1 (antibody, V domains shown)
VH: B4 VH with I28T, N30S, S53L, Y57S, D76K, V79L, G87R, P88A, H95Y, Y109L
VL: B4 VL with F51Y
B14: D2GA5 (antibody, V domains shown)
VH: B4 VH with N30H, S53I, Y57S, D76K, V79L, G87R, P88A, H95Y, Y109L
VL: B4 VL with F51Y
B15: D2GA6 (antibody, V domains shown)
VH: B4 VH with N30H, S53P, Y57S, D76K, V79L, G87R, P88A, H95Y, Y109I
VL: B4 VL with S57Q
B16: A6-A3 (antibody, V domains shown)
VH: B2 VH with F34W, H59T, E62S, S105E, T123L
VL: B2 VL with G30E, N31P, D51S, N52T, N53A, G90S, G99V
B17: A6-A4 (antibody, V domains shown)
VH: B2 VH with F34Y, H59T, E62S, T123L
VL: B2 VL with G30E, D51S, W92F, G99V
B18: A6-A7 (antibody, V domains shown)
VH: B2 VH with F34Y, S102E, L109V, T123L
VL: B2 VL with N31P, G90S, W92F, G99A
B19: A6-A1 (antibody, V domains shown)
VH: QVQLVQSGAEVKKPGSSVKVSCKASGGTFRNHAWSWVRQAPGQGLEWMGWISAYNGYTHYASKLQGRVTMTTDTSTSTAYMELRSLRSDDTAVYYCARVSAEYAEDWSLHYYYMDVWGQGTLVTVSS
VL: B2 VL with G90S, G99V
B20: A6-A5 (antibody, V domains shown)
VH: B2 VH with F34Y, E62S, N104A, T123L
VL: B2 VL with N52T, N53A, G90S, G99V, V100L
B21: A6-A8 (antibody, V domains shown)
VH: B2 VH with F34Y, H59T, S102E, N104A, S105E, T123L
VL: B2 VL with G30P, D51S, N53S, G90S, G99A, V100L

The binders below were run against T1, EGFR expressed on the surface of cells (A431, A549, MCF7 and other EGFR-expressing cell lines) (human, UniProt P00533 25-1210) (assay: cell-based or functional assay).

Binder | decrease in EGF stimulated receptor phosphorylation assay in EGFR positive cells (A431) [%] | ADCC Reporter Bioassay (luciferase, RLU) on A431 target cells, EC50 [nM]
B1 | ~10 | 
B2 | ~10 | 0.06
B3 | ~10 | 
B4 |  | 0.2

What follows are binders tested against T1, EGFR expressed on the surface of cells … (assay: binding of purified IgG to EGFR-expressing cell lines).

Binder | binding result
B5 | binds
B6 | binds
B7 | binds

Molecular target: T1, EGFR expressed on the surface of cells …
Assay: cell-based or functional assay
Remark: another data set of the same source

Binder | IC50 (M), inhibition of EGF-stimulated EGFR auto-phosphorylation in A549 cells [M]
B8 | 1.7e-10
B9 | 8.6e-10
B4 | 1.3e-09
B10 | 1.8e-10
B11 | 2e-10
B12 | 2.8e-10
B13 | 8.9e-10
B14 | 2.3e-10
B15 | 2.2e-10

The binders below were run against T1, EGFR expressed on the surface of cells … (assay: flow cytometry on A431 cells, 12-point titration, PE anti-human IgG).
Protocol: (§1) In this example, the experimental procedure was as follows: 50,000 A431 cells were aliquoted into the wells of a 96-well, v-bottom plate in 100 ul FACS Buffer (PBS+2% FBS). […] Cells were spun down, washed 1× with FACS Buffer, and then resuspended in 25 μl of antibody solution in triplicate. […] Cells were further incubated for 0.5 hr and then washed 1× with FACS Buffer. Cells were resuspended in 25 ul FACS Buffer and the median fluorescence intensity in the FL2-H channel was determined using the Intellicyt HTFC flow cytometer.
(§2) Data was analyzed and plotted in Graph Pad Prizm using non-linear regression fit. Data points are shown as the median fluorescence intensity (MFI) of positively labeled cells+/−Std Error.

Binder | EC50 [nM]
B2 | 1.3
B4 | 0.28

Molecular target: T1, EGFR expressed on the surface of cells …
Assay: cell-based or functional assay
Remark: another data set of the same source

Binder | IC50 (M), inhibition of EGF-stimulated EGFR auto-phosphorylation in A549 cells [M]
B2 | 1.1e-09
B16 | 1.1e-09
B17 | 1.05e-09
B18 | 5.6e-10
B19 | 5.1e-10
B20 | 1.1e-09
B21 | 6e-10

Each binder was assayed against T1, EGFR expressed on the surface of cells … (assay: flow cytometry on A431 cells (FIG. 2 legend; the same experiment as paragraph 158, printed with another rounding); A431 cells; FIG. 2 legend).
Protocol: as §1, §2

Binder | EC50 [nM]
B2 | 1.29

Each binder was assayed against T1, EGFR expressed on the surface of cells … (assay: flow cytometry on A431 cells, blocking of biotinylated human EGF binding (competitor: Human EGF Biotinylated Fluorokine)).
Protocol: Cells were finally resuspended in 25 μl FACS Buffer and the median fluorescence intensity in the FL1-H channel was determined using an Intellicyt HTFC flow cytometer. […] Data was analyzed and plotted in Graph Pad Prizm using non-linear regression fit. Data points are shown as the median fluorescence intensity (MFI)+/−Std Error.

Binder | IC50 [nM]
B2 | 2.06
B4 | 1.35
